Paper PMC9342608, “The OsEIL1‐OsERF115‐target gene regulatory module controls grain size and weight in rice”

T1: GST-OsEIL1N (Oryza sativa, UniProt Q10M41 1-350)
T1 sequence: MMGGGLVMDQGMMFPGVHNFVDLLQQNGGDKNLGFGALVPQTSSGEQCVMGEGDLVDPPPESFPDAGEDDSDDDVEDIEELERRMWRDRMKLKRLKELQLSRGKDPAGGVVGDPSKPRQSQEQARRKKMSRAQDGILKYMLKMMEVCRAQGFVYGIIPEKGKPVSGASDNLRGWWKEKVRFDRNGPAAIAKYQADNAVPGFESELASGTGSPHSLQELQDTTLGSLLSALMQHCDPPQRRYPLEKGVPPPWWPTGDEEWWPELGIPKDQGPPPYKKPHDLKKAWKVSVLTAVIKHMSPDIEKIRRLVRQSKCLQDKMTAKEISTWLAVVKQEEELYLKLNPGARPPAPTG

B1: OsERF115 probe 2 (EBS2) (dsDNA)
DNA 1: ATATGGCTAGAAACATAAATGTAGCTACTTTCTCTGTGCACGA
DNA 2: TCGTGCACAGAGAAAGTAGCTACATTTATGTTTCTAGCCATAT
B2: OsERF115 probe 3 (EBS3) (dsDNA)
DNA 1: GATAGAACTACGTATGCACGGACCGGCTCATCACTAGAGGAG
DNA 2: CTCCTCTAGTGATGAGCCGGTCCGTGCATACGTAGTTCTATC
B3: OsERF115 probe 1 (EBS1) (dsDNA)
DNA 1: CATAACTTTTCAGTCACATCATCTCCAATTTCAACCAAAATCCAAAC
DNA 2: GTTTGGATTTTGGTTGAAATTGGAGATGATGTGACTGAAAAGTTATG

molecular target: T1, GST-OsEIL1N; assay: EMSA; EMSA/Gel-Shift Binding Buffer (Beyotime GS005), 30 min at room temperature, 6% native PAGE; salt and pH not stated; details: protein: recombinant; tags: GST (N-terminal, pGEX-4T); label: 5' biotin on strand 1; blunt

Binding result, binds:
B1
B2
B3
